Test results reported in US6667173B2, “Nucleic acids encoding platelet derived growth factor-alpha receptors” (The Schepens Eye Research Institute, priority 2000, dated 2003).

Tests used:
[1] = test system: GST-PLCγ; assay: In vitro kinase assay of immunoprecipitated mutant αPDGFRs with exogenous substrate; format: biochemical; conditions: 292 immunoprecipitates, [32P]-γ ATP, 30° C., 5 min
Method: Mutant αPDGFRs were selectively immunoprecipitated with the 292 antibody, and samples representing 2×10^5 cells from 292 antibodies were subjected to an in vitro kinase assay. Immunoprecipitates were preincubated with 2 μg of GST protein for 10 min at 0° C., then 2 μg of Glutathione S-transferase fusion phospholipase C-gamma (GST-PLCγ, an exogenous substrate, 10 μCi of γ-[^32P] ATP (DuPont NEN Research Products, Boston, Mass.), and universal kinase buffer (UKB; 20 mM Pipes, pH 7.0, 10 mM MnCl2, 20 μg/ml aprotinin) were added. The samples were incubated at 30° C. for 5 min. The proteins were separated by 7.5% sodium dodecyl sulfate-polyacrylamide gel electrophoresis (SDS-PAGE), the gel was dried, and the radiolabeled protein was detected by autoradiography.

[2] = test system: NIH 3T3 cells; assay: [3H]-thymidine incorporation (entry into S phase) in NIH 3T3 cells expressing mutant receptors; format: cell-based, mouse; conditions: 10% FBS, 22 hours
Method: NIH 3T3 cells expressing either empty vector (EMP) or one of the αPDGFR mutants were trypsinized, resuspended in DMEM with 10% FBS, and plated at a density of 5×10^5 cells/well in 24-well tissue culture plates and cultured overnight. The cells were rinsed twice with phosphate buffered saline (PBS), and serum starved by incubation in 0.5 ml of DMEM with 0.1% FBS and 0.4 mg/ml of bovine serum albumin (BSA; Sigma) for 48 hours. The cells were then exposed to 50 ng/ml of PDGF-AA, 10% Fetal bovine serum (FBS) (v/v), or buffer for 22 hours. The cells were then pulsed for 4 hours in DMEM with 10% FBS containing 0.8 μCi/ml of [^3H]-thymidine (DuPont NEN Research Products). Finally, the cells were washed twice with PBS, and once with 5% trichloro acetic acid, and lysed in 250 μl of 0.25 N NaOH. The lysates were transferred into scintillation tubes containing 50 μl of 6 N HCl, and then 3 ml of scintillation fluid (ICN) was added. The incorporated radioactivity of [^3H]-thymidine uptake was quantitated in a scintillation counter (Packard, Meriden Conn.). The data were expressed as fold induction, which was calculated by dividing stimulated samples by the buffer control. Each condition was assayed triplicate, and the mean±standard deviation (SD) was obtained.

[3] = test system: FCX^2, Fα and Fβ cells; assay: Collagen gel contraction assay of cells with no PDGFRs, αPDGFR or βPDGFR; format: cell-based, mouse; conditions: 1 ng/ml TGFβ1; 24, 48, 72 hours
Method: The contraction assay was based on a previously described reference, Skuta, G. et al. (1999) J. Biol. Chem. 274:30163, with the following modifications. Fα cells were suspended in 1.5 mg/ml of neutralized collagen I (Cohesion vitrogen 100, Palo Alto, Calif.) at a density of 10^6 cells/ml, and were transferred into the 24-well plate (Falcon, Franklyn Lakes, N.J.) that had been preincubated with phosphate-buffer saline (PBS) with 5 mg/ml of bovine serum albumin (BSA) overnight. The gel was solidified by incubating at 37° C. for 90 minutes, and then the well was flooded with DMEM+5 mg/ml of BSA supplemented with an amount of vitreous such that the final concentration of vitreous in the culture medium was 1, 5 or 20%. […] The media was replaced every 24 hours and the gel diameter was measured after 48 hours. The extent of contraction was calculated by subtracting the diameter of the well at 48 hours from the initial diameter (15 mm). […]
The experiments described in Example 9 (FIG. 7B) were repeated with cells that express the βPDGFR (Fβ) instead of the αPDGFR, or no PDGFRs (FCX^2). Contraction was scored at the 48 hours time point. […]
To more directly test whether TGFβ could moderate contraction of fibroblasts via the αPDGFR, the response of the three cell lines to purified TGFβ was examined. […] The gel diameter was measured after 24, 48, or 72 hours, and the media was replaced every day.

[4] = target: T1, αPDGFR (Homo sapiens, UniProt P16234); assay: Tyrosine phosphorylation of the αPDGFR in TGFβ- or PDGF-treated F cells; format: cell-based; conditions: Fα cells; 50 ng/ml PDGF-BB 5 minutes or 1 ng/ml TGFβ1 5 minutes to 8 hours
T1 construct: expressed in transfected cells; host or cells: F cells (SV-40 immortalized mouse embryo fibroblasts lacking both PDGFRs), giving Fα
T1 sequence (P16234 24-1089): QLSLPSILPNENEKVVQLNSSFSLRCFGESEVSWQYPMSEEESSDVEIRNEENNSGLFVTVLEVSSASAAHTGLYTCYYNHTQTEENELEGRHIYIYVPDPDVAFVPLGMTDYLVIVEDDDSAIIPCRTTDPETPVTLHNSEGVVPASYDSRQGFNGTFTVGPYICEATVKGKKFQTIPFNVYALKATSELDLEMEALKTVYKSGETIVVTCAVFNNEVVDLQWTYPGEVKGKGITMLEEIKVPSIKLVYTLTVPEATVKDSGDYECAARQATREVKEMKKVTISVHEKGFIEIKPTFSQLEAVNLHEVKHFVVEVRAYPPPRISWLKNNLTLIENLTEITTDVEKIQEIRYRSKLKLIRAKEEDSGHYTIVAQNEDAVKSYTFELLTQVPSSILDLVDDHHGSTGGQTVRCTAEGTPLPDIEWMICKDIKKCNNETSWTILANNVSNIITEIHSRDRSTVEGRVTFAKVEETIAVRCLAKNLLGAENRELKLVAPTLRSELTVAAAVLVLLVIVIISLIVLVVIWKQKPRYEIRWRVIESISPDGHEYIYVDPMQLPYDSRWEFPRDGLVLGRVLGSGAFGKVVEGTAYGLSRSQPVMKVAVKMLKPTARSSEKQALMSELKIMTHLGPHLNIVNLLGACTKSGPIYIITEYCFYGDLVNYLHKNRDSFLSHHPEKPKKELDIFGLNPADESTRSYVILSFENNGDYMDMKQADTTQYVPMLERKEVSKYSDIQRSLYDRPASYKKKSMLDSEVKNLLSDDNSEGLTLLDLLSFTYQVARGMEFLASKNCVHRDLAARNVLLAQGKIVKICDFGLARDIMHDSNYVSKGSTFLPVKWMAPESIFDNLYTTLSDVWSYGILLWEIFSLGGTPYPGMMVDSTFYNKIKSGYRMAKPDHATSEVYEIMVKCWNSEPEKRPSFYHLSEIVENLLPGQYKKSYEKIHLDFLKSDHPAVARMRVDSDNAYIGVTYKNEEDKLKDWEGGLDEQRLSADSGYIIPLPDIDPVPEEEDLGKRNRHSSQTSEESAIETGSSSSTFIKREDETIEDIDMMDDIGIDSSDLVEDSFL
Method: To show the effect of TGFβ on αPDGFR, the tyrosine phosphorylation state of the αPDGFR was assayed in TGFβ-treated cells. The F cells with or without PDGFR were grown to 80% confluent and then starved with DMEM containing 1% FBS for 20 hours. Cells were exposed at 37° C. for 5 minutes to either 50 ng/ml of PDGF-BB; with 1 ng/ml of TGFβ1 for 5 minutes, 1 hour, 2 hours, 4 hours, 6 hours or 8 hours; or were left unstimulated. After treatment the cells were washed twice with H/S (20 mM Hepes, pH 7.4, 150 mM NaCl) and then lysed in EB (10 mM Tris-HCl, pH 7.4, 5 mM EDTA, 50 mM NaCl, 50 mM NaF, 1% Triton-X 100, 0.1% BSA, 20 μg/ml aprotinin, 2 mM Na3VO4, 1 mM phenylmethylsulfonyl fluoride; PMSF). Lysates were centrifuged for 15 minutes at 13,000×g, the pellet was discarded and the soluble fraction was used as the total cell lysate. The protein concentration was measured using protein assay kit (Pierce, Rockfield, Ill.) following the manufacture's instructions.
Receptors were immunoprecipitated from the soluble fraction with the 27P antibody (described above). Immune complex was bound to formalin-fixed membranes of Staphylococcus aureus, spun through an EB sucrose gradient, and washed twice with EB, then with PAN (10 mM Pipes, pH 7.0, 100 mM NaCl, 1% aprotinin)+0.5% Nonidet P-40 (NP-40), and finally with PAN. The samples were resuspended in PAN before using for kinase assay or western blotting. […]

[5] = target: T2, βPDGFR (Homo sapiens, UniProt P09619); assay: Tyrosine phosphorylation of the βPDGFR in TGFβ- or PDGF-treated F cells; format: cell-based; conditions: Fβ cells; 1 ng/ml TGFβ1
T2 construct: expressed in transfected cells; host or cells: F cells (mouse embryo fibroblasts lacking both PDGFRs), giving Fβ
T2 sequence (P09619 33-1106): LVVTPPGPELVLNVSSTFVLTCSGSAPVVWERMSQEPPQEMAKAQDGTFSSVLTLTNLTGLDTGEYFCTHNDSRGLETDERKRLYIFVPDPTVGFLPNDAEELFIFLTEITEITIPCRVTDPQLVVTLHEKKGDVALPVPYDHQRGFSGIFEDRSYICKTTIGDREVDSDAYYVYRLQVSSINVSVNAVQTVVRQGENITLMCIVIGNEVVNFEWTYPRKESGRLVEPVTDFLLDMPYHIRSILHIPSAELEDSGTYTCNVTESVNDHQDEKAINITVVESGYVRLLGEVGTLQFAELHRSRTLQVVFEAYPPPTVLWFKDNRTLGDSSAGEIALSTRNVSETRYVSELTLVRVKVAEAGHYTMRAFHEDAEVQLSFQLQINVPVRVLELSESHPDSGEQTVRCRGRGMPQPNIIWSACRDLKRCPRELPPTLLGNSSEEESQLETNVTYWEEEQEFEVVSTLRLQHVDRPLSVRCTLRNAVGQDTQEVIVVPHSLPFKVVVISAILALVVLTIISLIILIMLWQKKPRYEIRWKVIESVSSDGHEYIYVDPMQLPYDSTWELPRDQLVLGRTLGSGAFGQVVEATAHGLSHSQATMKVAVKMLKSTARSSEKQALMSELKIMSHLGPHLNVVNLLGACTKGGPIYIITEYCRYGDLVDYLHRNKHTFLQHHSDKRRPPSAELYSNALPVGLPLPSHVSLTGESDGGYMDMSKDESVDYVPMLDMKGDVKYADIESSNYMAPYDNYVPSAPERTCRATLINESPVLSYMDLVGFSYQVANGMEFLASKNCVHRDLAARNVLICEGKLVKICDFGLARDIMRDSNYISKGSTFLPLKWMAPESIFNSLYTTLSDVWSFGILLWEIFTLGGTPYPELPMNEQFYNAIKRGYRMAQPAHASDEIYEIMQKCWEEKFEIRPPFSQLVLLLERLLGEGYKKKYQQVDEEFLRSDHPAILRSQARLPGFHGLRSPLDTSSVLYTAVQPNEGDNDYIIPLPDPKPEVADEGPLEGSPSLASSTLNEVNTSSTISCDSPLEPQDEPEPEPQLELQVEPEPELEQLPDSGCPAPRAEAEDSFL

[6] = test system: Erk; assay: PDGF-dependent activation of Erk in NIH 3T3 cells expressing mutant receptors (anti-phospho-Erk western blot); format: cell-based, mouse; conditions: 50 ng/ml PDGF-AA, 5 minutes
Method: Cells were stimulated as described in Example 2 and 20 μg of total cell lysate was subjected to western blotting analysis using anti-phospho-Erk or anti-Ras GTP-activating protein antibody as an internal control for the amount of protein. The phospho-extracellular signal related kinase (Erk) rabbit polyclonal antibody was purchased from New England Biolabs (Beverly, Mass.) and used at a dilution of 1:1000.

[7] = test system: human αPDGFR; assay: Tyrosine phosphorylation of the introduced mutant αPDGFR (292 immunoprecipitation from NIH 3T3 cells); format: cell-based, mouse; conditions: 292 antibody IP, RIPA lysis; 50 ng/ml PDGF-AA, 5 minutes
Sequence of human αPDGFR (P16234 24-589 limits assumed): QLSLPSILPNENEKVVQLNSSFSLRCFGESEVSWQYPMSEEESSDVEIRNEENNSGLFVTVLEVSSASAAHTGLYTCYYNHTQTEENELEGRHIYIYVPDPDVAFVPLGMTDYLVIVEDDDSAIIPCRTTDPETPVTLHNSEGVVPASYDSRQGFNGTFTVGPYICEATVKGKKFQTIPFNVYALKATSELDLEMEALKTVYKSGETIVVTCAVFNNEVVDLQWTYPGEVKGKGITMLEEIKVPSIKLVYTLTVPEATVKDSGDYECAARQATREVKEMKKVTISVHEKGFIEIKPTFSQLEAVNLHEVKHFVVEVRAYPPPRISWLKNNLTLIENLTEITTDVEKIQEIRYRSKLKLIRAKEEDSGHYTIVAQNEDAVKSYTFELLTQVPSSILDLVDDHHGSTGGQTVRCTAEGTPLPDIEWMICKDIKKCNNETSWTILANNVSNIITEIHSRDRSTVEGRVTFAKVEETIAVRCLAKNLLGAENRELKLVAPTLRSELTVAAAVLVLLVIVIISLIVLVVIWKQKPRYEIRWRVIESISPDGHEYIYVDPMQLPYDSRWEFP
Excerpt: To characterize the kinase activity of the point mutants, these were immunoprecipitated using the 292 monoclonal antibody, which selectively recognizes an extracellular epitope of the introduced receptor and recognizes all of the mutants used in this study. While PDGF-stimulation is expected to dimerize mutant and wild type receptors, lysing cells in RIPA buffer breaks receptor dimers. Kelly, J. D. et al. (1991) J. Biol. Chem. 266:8987. Consequently, 292 immunoprecipitates are not expected to contain co-immunoprecipitating WT receptor. NIH 3T3 cells expressing the empty vector or receptor mutants were left resting, or stimulated with 50 ng/ml of PDGF-AA for 5 minutes, the cells were lysed in RIPA buffer and the resulting samples were subjected to anti-phosphotyrosine and anti-αPDGFR western blot analysis. In this series of experiments, we included the previously described Fα cell line, which is an NIH 3T3-like cell line that express the introduced human αPDGFR. Andrews, A. et al (1999) Invest. Ophthalmol. Vis. Sci. 40:2683. This cell line was included as a positive control, since the WT receptor in NIH 3T3 cells is mouse, and not recognized by the 292 antibody. As expected, the αPDGFR was immunoprecipitated from the Fα cells, but not the NIH 3T3 cells expressing the empty vector, and PDGF stimulation increased the phosphotyrosine content of the receptor (FIG. 3A). […]

tyrosine phosphorylation of the αPDGFR [4]	Substance	kinase activity towards exogenous substrate GST-PLCγ [1]	[3H]-thymidine incorporation in response to serum [2]	TGFβ-induced contraction [3]	tyrosine phosphorylation of the βPDGFR [5]	PDGF-dependent activation of Erk [6]	basal or PDGF-stimulated tyrosine phosphorylation of the mutant receptor [7]
–	V859M: human αPDGFR point mutant, valine at position 859 changed to methionine; SEQ ID NO: 10	more active than the WT receptor	somewhat elevated response to serum	–	–	–	–
increased phosphorylation of the αPDGFR	TGFβ: recombinant human TGFβ1 purchased from R & D systems	–	–	induced contraction of the Fα cells to a much greater extent than either the Fβ cells or the cells that do not express any PDGFR	very modest or undetectable tyrosine phosphorylation	–	–
–	D818N: human αPDGFR point mutant, aspartic acid at position 818 changed to asparagine; SEQ ID NO: 8	not phosphorylated	–	–	–	failed to fully activated Erk	no detectable
